Test results published in patent US20250263462A1 (US Dept. of Health and Human Services, published 2025).

Tests used:
Assay in all cases: cell-based or functional assay
[1] = molecular target: T1, WT KRAS 10-mer peptide (SEQ ID NO: 30) presented by HLA-A11 on pulsed cells (human, UniProt A*11:01)
[2] = molecular target: T2, KRAS G12D 10-mer peptide … (SEQ ID NO: 2) presented by HLA-A11 on pulsed cells (human, UniProt A*11:01)
[3] = molecular target: KRAS G12V 10-mer peptide … (SEQ ID NO: 33) presented by HLA-A11 on pulsed cells (human, UniProt A*11:01)
[4] = molecular target: HLA-A11 on COS7/A11 cells expressing the KRAS G12V minigene (23-mer SEQ ID NO: 120) (human, UniProt A*11:01)
[5] = molecular target: HLA-A11 on COS7/A11 cells expressing the WT KRAS minigene (23-mer SEQ ID NO: 118) (human, UniProt A*11:01)
[6] = molecular target: HLA-A11 on COS7/A11 cells expressing the KRAS G12D minigene (23-mer SEQ ID NO: 119) (human, UniProt A*11:01)
[7] = molecular target: T1, WT KRAS 10-mer peptide (SEQ ID NO: 30) …; remark: listed apart in the source
[8] = molecular target: T2, KRAS G12D 10-mer peptide … (SEQ ID NO: …); remark: listed apart in the source
[9] = molecular target: KRAS G12D 9-mer peptide KRAS8-16 … (SEQ ID NO: 34) presented by HLA-A11 on pulsed cells (human, UniProt A*11:01)

B1: TRAV19*01 + TRBV4*01 TCR chain pair (TCR, V domains shown)
V domain 1: GQQVKQSSPSLTVQEGGILILNCDYENDMFDYFAWYKKYPDNSPTLLISVRSNVDKREDGRFTVFLNKSGKHFSLHITASQPEDTAVYLCAAGDSGGSNYKLTFGKGTLLTVTP
V domain 2: ETAVFQTPNYHVTQVGNEVSFNCKQTLGHDTMYWYKQDSKKLLKIMFSYNNKQLIVNETVPRRFSPQSSDKAHLNLRIKSVEPEDSAVYLCASSRDWGPAEQFFGPGTRLTVLE
IFN-γ, PBL + pulsed Cos7/A11 [1]: 30 pg/mL
IFN-γ, PBL + pulsed Cos7/A11 [2]: 30 pg/mL
IFN-γ, PBL + pulsed Cos7/A11 [3]: 27 pg/mL
IFN-γ, PBL + Cos7/A11 minigene transfectant [4]: 30 pg/mL
IFN-γ, PBL + Cos7/A11 minigene transfectant [5]: 32 pg/mL
IFN-γ, PBL + Cos7/A11 minigene transfectant [6]: 27 pg/mL

B2: TRAV3-3*01 + TRBV13-1*02 TCR chain pair (TCR, V domains shown)
V domain 1: GEQVEQRPPHLSVREGDSAVITCTYTDPNSYYFFWYKQEPGASLQLLMKVFSSTEINEGQGFTVLLNKKDKRLSLNLTAAHPGDSAAYFCAVSGGTNSAGNKLTFGIGTRVLVRP
V domain 2: EAAVTQSPRNKVTVTGGNVTLSCRQTNSHNYMYWYRQDTGHGLRLIHYSYGAGNLQIGDVPDGYKATRTTQEDFFLLLELASPSQTSLYFCASASWGGYAEQFFGPGTRLTVLE
IFN-γ, PBL + pulsed Cos7/A11 [1]: 47 pg/mL
IFN-γ, PBL + pulsed Cos7/A11 [2]: 49 pg/mL
IFN-γ, PBL + pulsed Cos7/A11 [3]: 44 pg/mL
IFN-γ, PBL + Cos7/A11 minigene transfectant [4]: 61 pg/mL
IFN-γ, PBL + Cos7/A11 minigene transfectant [5]: 51 pg/mL
IFN-γ, PBL + Cos7/A11 minigene transfectant [6]: 56 pg/mL

B3: TRAV3-3*01/TRBV4*01 murine anti-KRAS G12V TCR (SEQ ID NOs: 133 and 134) (TCR, V domains shown)
V domain 1: GEQVEQRPPHLSVREGDSAVITCTYTDPNSYYFFWYKQEPGASLQLLMKVFSSTEINEGQGFTVLLNKKDKRLSLNLTAAHPGDSAAYFCAVSGGTNSAGNKLTFGIGTRVLVRP
V domain 2: ETAVFQTPNYHVTQVGNEVSFNCKQTLGHDTMYWYKQDSKKLLKIMFSYNNKQLIVNETVPRRFSPQSSDKAHLNLRIKSVEPEDSAVYLCASSRDWGPAEQFFGPGTRLTVLE
IFN-γ, PBL + pulsed Cos7/A11 [1]: 36 pg/mL
IFN-γ, PBL + pulsed Cos7/A11 [2]: 39 pg/mL
IFN-γ, PBL + Cos7/A11 pulsed at 10^-6 (10^× µM) [7]: 50 pg/mL
IFN-γ, PBL + Cos7/A11 pulsed at 10^-7 (10^× µM) [7]: 42 pg/mL
IFN-γ, PBL + Cos7/A11 pulsed at 10^-8 (10^× µM) [7]: 50 pg/mL
IFN-γ, PBL + Cos7/A11 pulsed at 10^-9 (10^× µM) [7]: 50 pg/mL
IFN-γ, PBL + Cos7/A11 pulsed at 10^-10 (10^× µM) [7]: 48 pg/mL
IFN-γ, PBL + Cos7/A11 pulsed at 10^-11 (10^× µM) [7]: 55 pg/mL
IFN-γ, PBL + Cos7/A11 pulsed at 10^-12 (10^× µM) [7]: 47 pg/mL
IFN-γ, PBL + Cos7/A11 pulsed at 10^-13 (10^× µM) [7]: 68 pg/mL
IFN-γ, PBL + Cos7/A11 pulsed at 10^-6 (10^× µM) [8]: 43 pg/mL
IFN-γ, PBL + Cos7/A11 pulsed at 10^-7 (10^× µM) [8]: 40 pg/mL
IFN-γ, PBL + Cos7/A11 pulsed at 10^-8 (10^× µM) [8]: 46 pg/mL
IFN-γ, PBL + Cos7/A11 pulsed at 10^-9 (10^× µM) [8]: 41 pg/mL
IFN-γ, PBL + Cos7/A11 pulsed at 10^-10 (10^× µM) [8]: 53 pg/mL
IFN-γ, PBL + Cos7/A11 pulsed at 10^-11 (10^× µM) [8]: 43 pg/mL
IFN-γ, PBL + Cos7/A11 pulsed at 10^-12 (10^× µM) [8]: 49 pg/mL
IFN-γ, PBL + Cos7/A11 pulsed at 10^-13 (10^× µM) [8]: 49 pg/mL
IFN-γ, PBL + Cos7/A11 pulsed at 10^-6 (10^× µM) [9]: 47 pg/mL
IFN-γ, PBL + Cos7/A11 pulsed at 10^-7 (10^× µM) [9]: 48 pg/mL
IFN-γ, PBL + Cos7/A11 pulsed at 10^-8 (10^× µM) [9]: 49 pg/mL
IFN-γ, PBL + Cos7/A11 pulsed at 10^-9 (10^× µM) [9]: 44 pg/mL
IFN-γ, PBL + Cos7/A11 pulsed at 10^-10 (10^× µM) [9]: 52 pg/mL
IFN-γ, PBL + Cos7/A11 pulsed at 10^-11 (10^× µM) [9]: 49 pg/mL
IFN-γ, PBL + Cos7/A11 pulsed at 10^-12 (10^× µM) [9]: 55 pg/mL
IFN-γ, PBL + Cos7/A11 pulsed at 10^-13 (10^× µM) [9]: 52 pg/mL
IFN-γ, PBL + Cos7/A11 minigene transfectant [4]: 11100 pg/mL
IFN-γ, PBL + Cos7/A11 minigene transfectant [5]: 41 pg/mL
IFN-γ, PBL + Cos7/A11 minigene transfectant [6]: 38 pg/mL
